Data as given in patent US20240360203A1.

Key:
[1] = molecular target: SARS-CoV-1 spike protein (SARS-CoV-1) (UniProt P59594); assay: cell-based or functional assay
[2] = molecular target: WIV1 spike protein (bat SARS-like coronavirus WIV1); assay: cell-based or functional assay
[3] = molecular target: HIV-1 Env peptide, biotinylated (negative control) (HIV-1); assay: DELFIA on captured biotin-peptide; set-up: unit not given beside the values

Row | Substance | pseudovirus neutralization Emax (% neutralization) [1] | pseudovirus neutralization Emax (% neutralization) [2] | AUC [3]
1 | Bebtelovimab (antibody) | 8 | 6.99 | 
2 | isotype control (palivizumab variable regions expressed as human IgG1 with LS mutation in the Fc region) (antibody) |  |  | 41500
